Experimental findings from the supplement of paper PMC7125110 are described below.

B1: glmS ribozyme (parent)
chain: AUAAAAGCGCCAGAACUACAGAAAUGUAGUUGACGAGGAGGAGGUUUAUCGAAUUUUCGGCGGAUGCCUCCAAA

± gives the standard error. Fewer inactive variants are shown than the library holds. Where only a bound is given, the exact number is not on record here.

Holding throughout (details): with glucosamine-6-phosphate
Variants of B1 are the subject of series [1]. Nature of the series: self-cleavage kobs at 40 uM GlcN6P; higher = faster cleavage; RNA array. Summed up: (§1)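 On sequenced MiSeq chips, barcoded ribozyme variants were made in situ by E. coli RNA polymerase and followed at 37 °C through a hybridised Cy3 probe. Glucosamine-6-phosphate was flowed in at 40 μM to 10 mM in HEPES/KCl/Mg(OAc)2 buffer. Exponential fits to normalised per-tile medians gave kobs, and weighted Michaelis–Menten fits gave kcat and KM.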

Series [2] covers variants of B1. Nature of the series: self-cleavage kobs at 640 uM GlcN6P; higher = faster cleavage; RNA array. Put shortly:
as §1

Series [3] covers variants of B1. The series is described as follows: self-cleavage kobs at 10000 uM GlcN6P; higher = faster cleavage; RNA array. Summed up: as §1
The variants in series [4] derive from B1. Nature of the series: self-cleavage kobs at 160 uM GlcN6P; higher = faster cleavage; RNA array. Put shortly:
as §1

Series [5] covers variants of B1. The series is described as follows: self-cleavage kobs at 2500 uM GlcN6P; higher = faster cleavage; RNA array. Put shortly:
as §1

C8G G32U C34A: the “self-cleavage kobs at 40 uM GlcN6P” value in the series with glucosamine-6-phosphate [1] was less than 1e-05 s⁻¹.

As to U56C C68U, the “self-cleavage kobs at 40 uM GlcN6P” value with glucosamine-6-phosphate [1] was less than 1e-05 s⁻¹. Besides, the “self-cleavage kobs at 640 uM GlcN6P” value in the series with glucosamine-6-phosphate [2] was less than 1e-05 s⁻¹.

In the case of A36G U45G G51U U54C U56A C68A, the “self-cleavage kobs at 40 uM GlcN6P” value in the series with glucosamine-6-phosphate [1] was less than 1e-05 s⁻¹.

For the variant G38U A48C C71G, the “self-cleavage kobs at 40 uM GlcN6P” value with glucosamine-6-phosphate [1] is less than 1e-05 s⁻¹. Besides, in the series with glucosamine-6-phosphate [3], the “self-cleavage kobs at 10000 uM GlcN6P” value was less than 1e-05 s⁻¹.

On to A6C G63A, for which the “self-cleavage kobs at 40 uM GlcN6P” value in the series with glucosamine-6-phosphate [1] was less than 1e-05 s⁻¹. In addition, in the series with glucosamine-6-phosphate [4], the “self-cleavage kobs at 160 uM GlcN6P” value is less than 1e-05 s⁻¹. Besides, in the series with glucosamine-6-phosphate [2], the “self-cleavage kobs at 640 uM GlcN6P” value is less than 1e-05 s⁻¹.

As for C16A A52U G60A C71G, the “self-cleavage kobs at 40 uM GlcN6P” value with glucosamine-6-phosphate [1] worked out at 5.98e-05 ± 2.3e-05 s⁻¹.

With U47G G66A C70U, in the series with glucosamine-6-phosphate [1], the “self-cleavage kobs at 40 uM GlcN6P” value is 0.000121 ± 3e-05 s⁻¹. Besides, the “self-cleavage kobs at 10000 uM GlcN6P” value with glucosamine-6-phosphate [3] was 0.00591 ± 0.0017 s⁻¹.

Consider C8A U47G, for which the “self-cleavage kobs at 40 uM GlcN6P” value with glucosamine-6-phosphate [1] is less than 1e-05 s⁻¹.

Take C8A A42U G62U: in the series with glucosamine-6-phosphate [1], the “self-cleavage kobs at 40 uM GlcN6P” value is less than 1e-05 s⁻¹. Also, the “self-cleavage kobs at 2500 uM GlcN6P” value in the series with glucosamine-6-phosphate [5] is less than 1e-05 s⁻¹.

With G7U A33U A64G C70G, the “self-cleavage kobs at 40 uM GlcN6P” value with glucosamine-6-phosphate [1] is less than 1e-05 s⁻¹.

With A14C G38C G44A G63U C70G, the “self-cleavage kobs at 40 uM GlcN6P” value in the series with glucosamine-6-phosphate [1] was less than 1e-05 s⁻¹.

Turning to C16U G63U G66A, in the series with glucosamine-6-phosphate [1], the “self-cleavage kobs at 40 uM GlcN6P” value was less than 1e-05 s⁻¹. In addition, the “self-cleavage kobs at 10000 uM GlcN6P” value with glucosamine-6-phosphate [3] was less than 1e-05 s⁻¹.

Take U55C G63U: the “self-cleavage kobs at 40 uM GlcN6P” value in the series with glucosamine-6-phosphate [1] is less than 1e-05 s⁻¹.

With G32C G35A A48U A52U U54C C67U, in the series with glucosamine-6-phosphate [1], the “self-cleavage kobs at 40 uM GlcN6P” value was less than 1e-05 s⁻¹. In addition, in the series with glucosamine-6-phosphate [4], the “self-cleavage kobs at 160 uM GlcN6P” value was less than 1e-05 s⁻¹. The “self-cleavage kobs at 640 uM GlcN6P” value with glucosamine-6-phosphate [2] is less than 1e-05 s⁻¹.

As for C16A C50G C68U, the “self-cleavage kobs at 40 uM GlcN6P” value with glucosamine-6-phosphate [1] was 0.000143 ± 3.6e-05 s⁻¹. Moreover, the “self-cleavage kobs at 10000 uM GlcN6P” value with glucosamine-6-phosphate [3] was determined as 0.000227 ± 6.2e-05 s⁻¹.

As to U31C U56G, the “self-cleavage kobs at 40 uM GlcN6P” value with glucosamine-6-phosphate [1] came to 0.000154 ± 1.9e-05 s⁻¹. Moreover, in the series with glucosamine-6-phosphate [4], the “self-cleavage kobs at 160 uM GlcN6P” value came to 0.000413 ± 9.2e-05 s⁻¹. Also, the “self-cleavage kobs at 640 uM GlcN6P” value in the series with glucosamine-6-phosphate [2] turned out to be 0.000899 ± 0.00013 s⁻¹. The “self-cleavage kobs at 2500 uM GlcN6P” value with glucosamine-6-phosphate [5] came out at 0.00194 ± 0.0003 s⁻¹. Further, in the series with glucosamine-6-phosphate [3], the “self-cleavage kobs at 10000 uM GlcN6P” value is 0.00757 ± 0.00091 s⁻¹.

Turning to A36U A39U C50U C61G U65A, the “self-cleavage kobs at 40 uM GlcN6P” value in the series with glucosamine-6-phosphate [1] is less than 1e-05 s⁻¹. Also, the “self-cleavage kobs at 10000 uM GlcN6P” value with glucosamine-6-phosphate [3] was less than 1e-05 s⁻¹.

With G9A G43U, in the series with glucosamine-6-phosphate [1], the “self-cleavage kobs at 40 uM GlcN6P” value is less than 1e-05 s⁻¹. Also, the “self-cleavage kobs at 160 uM GlcN6P” value in the series with glucosamine-6-phosphate [4] is less than 1e-05 s⁻¹. Moreover, the “self-cleavage kobs at 640 uM GlcN6P” value with glucosamine-6-phosphate [2] was less than 1e-05 s⁻¹. Further, the “self-cleavage kobs at 2500 uM GlcN6P” value in the series with glucosamine-6-phosphate [5] was less than 1e-05 s⁻¹.

As for G9A G43A, the “self-cleavage kobs at 40 uM GlcN6P” value with glucosamine-6-phosphate [1] was less than 1e-05 s⁻¹. The “self-cleavage kobs at 640 uM GlcN6P” value in the series with glucosamine-6-phosphate [2] was less than 1e-05 s⁻¹. The “self-cleavage kobs at 2500 uM GlcN6P” value with glucosamine-6-phosphate [5] is less than 1e-05 s⁻¹.

On to U46G U47G C67A, for which, in the series with glucosamine-6-phosphate [1], the “self-cleavage kobs at 40 uM GlcN6P” value worked out at 7.27e-05 ± 2e-05 s⁻¹. For the same variant, the “self-cleavage kobs at 10000 uM GlcN6P” value with glucosamine-6-phosphate [3] was determined as 0.0021 ± 0.00039 s⁻¹.

Take C8A C50G: in the series with glucosamine-6-phosphate [1], the “self-cleavage kobs at 40 uM GlcN6P” value amounted to 5.03e-05 ± 1.7e-05 s⁻¹. Also, in the series with glucosamine-6-phosphate [4], the “self-cleavage kobs at 160 uM GlcN6P” value stood at 0.000112 ± 3.3e-05 s⁻¹. For the same variant, in the series with glucosamine-6-phosphate [2], the “self-cleavage kobs at 640 uM GlcN6P” value was determined as 0.00101 ± 0.00048 s⁻¹. In addition, in the series with glucosamine-6-phosphate [5], the “self-cleavage kobs at 2500 uM GlcN6P” value was 9.84e-05 ± 2.6e-05 s⁻¹.

With G7A G13U, the “self-cleavage kobs at 40 uM GlcN6P” value in the series with glucosamine-6-phosphate [1] was less than 1e-05 s⁻¹. Besides, the “self-cleavage kobs at 160 uM GlcN6P” value with glucosamine-6-phosphate [4] is less than 1e-05 s⁻¹. In the series with glucosamine-6-phosphate [2], the “self-cleavage kobs at 640 uM GlcN6P” value was less than 1e-05 s⁻¹.

As to A12U A52C C58U C71U, the “self-cleavage kobs at 40 uM GlcN6P” value in the series with glucosamine-6-phosphate [1] was less than 1e-05 s⁻¹.

With C10U G40U C58A, the “self-cleavage kobs at 40 uM GlcN6P” value in the series with glucosamine-6-phosphate [1] is less than 1e-05 s⁻¹. The “self-cleavage kobs at 2500 uM GlcN6P” value with glucosamine-6-phosphate [5] is less than 1e-05 s⁻¹. The “self-cleavage kobs at 10000 uM GlcN6P” value in the series with glucosamine-6-phosphate [3] was less than 1e-05 s⁻¹.

With G51C G60U A64U, in the series with glucosamine-6-phosphate [1], the “self-cleavage kobs at 40 uM GlcN6P” value is less than 1e-05 s⁻¹.

For C10A G41C, in the series with glucosamine-6-phosphate [1], the “self-cleavage kobs at 40 uM GlcN6P” value was less than 1e-05 s⁻¹. Besides, the “self-cleavage kobs at 160 uM GlcN6P” value in the series with glucosamine-6-phosphate [4] is less than 1e-05 s⁻¹. Further, the “self-cleavage kobs at 640 uM GlcN6P” value with glucosamine-6-phosphate [2] was less than 1e-05 s⁻¹. Moreover, in the series with glucosamine-6-phosphate [5], the “self-cleavage kobs at 2500 uM GlcN6P” value was less than 1e-05 s⁻¹. Besides, the “self-cleavage kobs at 10000 uM GlcN6P” value with glucosamine-6-phosphate [3] is less than 1e-05 s⁻¹.

With G9A A14G, in the series with glucosamine-6-phosphate [1], the “self-cleavage kobs at 40 uM GlcN6P” value is less than 1e-05 s⁻¹. For the same variant, the “self-cleavage kobs at 160 uM GlcN6P” value in the series with glucosamine-6-phosphate [4] is less than 1e-05 s⁻¹. For the same variant, the “self-cleavage kobs at 10000 uM GlcN6P” value in the series with glucosamine-6-phosphate [3] came out at 5.01e-05 ± 1.3e-05 s⁻¹.

A42U G60A: in the series with glucosamine-6-phosphate [1], the “self-cleavage kobs at 40 uM GlcN6P” value is less than 1e-05 s⁻¹. The “self-cleavage kobs at 160 uM GlcN6P” value with glucosamine-6-phosphate [4] was less than 1e-05 s⁻¹. In the series with glucosamine-6-phosphate [3], the “self-cleavage kobs at 10000 uM GlcN6P” value is less than 1e-05 s⁻¹.
